Reference: US20230242646A1 (JJP BIOLOGICS SP Z O O, published 2023)

Legend:
[1] = target: T1, recombinant C-terminal polyhistidine-tagged human (extracellular) CD89 (Sino Biological) (human, UniProt P24071 22-227); assay: ELISA, coated rhuCD89, supernatant
T1 construct: extracellular domain; bought protein; also called rhuCD89; soluble monomeric rhuCD89
Protocol: After extensive washing with PBS/0.05% Tween 20, plates were blocked with PBS/0.05% Tween 20/1% BSA (Roche) for 1 hour at RT. […] After extensive washing in PBS/0.05% Tween 20, binding of antibodies on rhuCD89 was determined with 1:5,000 diluted horseradish peroxidase (HRP)-conjugated goat anti-human IgG Fcγ-specific antibodies (Jackson ImmunoResearch) for 1 hour at RT, followed by a ready-to-use solution of TMB substrate (Invitrogen) for colorimetric detection. After adding 1 M HCL, binding (optical density) of antibodies on rhuCD89 was measured at wavelength of 450 nm (reference wavelength of 655 nm) using a microplate reader (Synergy HTX; BioTek).

[2] = target: T2, membrane-bound full-length human CD89 on HEK293F cells (human, UniProt P24071 22-287); assay: FACS HEK293F-huCD89, supernatant
T2 construct: 2 or transient transfectants; also called membrane human CD89; human FcaRI
Protocol: After extensive washing in PBS/BSA/NaN₃, cells were subsequently incubated with 1:200 diluted PE-conjugated goat anti-human IgG Fcγ-specific antibodies (Jackson ImmunoResearch) for 30 minutes at 4° C. After extensive washing in PBS/BSA/NaN₃, cells were fixed in 4% formaldehyde in PBS/BSA/NaN₃ for 30 minutes at 4° C.

[3] = target: T3, chimeric human/cynomolgus monkey CD89-hotspots on HEK293F cells (human/cynomolgus chimera, UniProt P24071 22-287); assay: FACS, 10 µg/mL, transiently transfected HEK293F
T3 construct: also called dThr58, Gln59; dArg73, Arg74, Lys76
T3 chain: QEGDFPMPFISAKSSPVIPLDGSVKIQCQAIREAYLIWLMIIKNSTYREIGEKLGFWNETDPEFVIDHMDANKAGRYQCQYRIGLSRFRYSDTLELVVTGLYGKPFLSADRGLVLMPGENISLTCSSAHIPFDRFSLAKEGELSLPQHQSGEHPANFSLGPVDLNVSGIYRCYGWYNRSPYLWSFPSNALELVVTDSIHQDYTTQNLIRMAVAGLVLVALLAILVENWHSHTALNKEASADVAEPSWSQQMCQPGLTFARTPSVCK
Protocol: (§1) To this end, transient transfected HEK293F cells were put at 10 × 10⁶ cells/mL in ice-chilled phosphate-buffered saline containing 0.1% BSA (Sigma)/0.05% NaN₃ (PBS/BSA/NaN₃) supplemented with 50 µg/mL human IgGs (blocking FcY receptors; Sigma) for 10 minutes at 4° C. Then, 10 µL/tube (i.e., 0.1 × 10⁶ cells) of these cells were incubated with or without 100 µL purified mouse anti-human CD89 antibody at 10 µg/mL (in PBS/BSA/NaN₃) for 30 minutes at 4° C. […] After extensive washing in PBS/BSA/NaN₃, cells were subsequently incubated with 1:200 diluted PE-conjugated goat anti-mouse IgG Fcy-specific antibodies (Jackson ImmunoResearch) for 30 minutes at 4° C. After extensive washing in PBS/BSA/NaN₃, cells were fixed in 2% formaldehyde in PBS/BSA/NaN₃ for 30 minutes at 4° C.

[4] = target: T4, chimeric human/cynomolgus monkey CD89-I on HEK293F cells (human/cynomolgus chimera, UniProt P24071 22-287); assay: FACS, 10 µg/mL, transiently transfected HEK293F
T4 construct: also called dGln22 - Lys46 human EC1-CD89; I (22-46)
T4 chain: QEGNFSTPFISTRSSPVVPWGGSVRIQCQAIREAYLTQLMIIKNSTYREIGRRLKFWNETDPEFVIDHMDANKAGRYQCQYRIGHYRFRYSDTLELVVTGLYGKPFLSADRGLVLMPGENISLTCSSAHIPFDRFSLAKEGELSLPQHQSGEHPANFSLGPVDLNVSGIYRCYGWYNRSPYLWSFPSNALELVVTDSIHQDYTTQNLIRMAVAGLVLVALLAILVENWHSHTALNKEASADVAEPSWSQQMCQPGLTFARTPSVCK
Protocol: as §1

[5] = target: T5, chimeric human/cynomolgus monkey CD89-IV on HEK293F cells (human/cynomolgus chimera, UniProt P24071 22-287); assay: FACS, 10 µg/mL, transiently transfected HEK293F
T5 construct: also called dArg97 - Gly121 human EC1-CD89
T5 chain: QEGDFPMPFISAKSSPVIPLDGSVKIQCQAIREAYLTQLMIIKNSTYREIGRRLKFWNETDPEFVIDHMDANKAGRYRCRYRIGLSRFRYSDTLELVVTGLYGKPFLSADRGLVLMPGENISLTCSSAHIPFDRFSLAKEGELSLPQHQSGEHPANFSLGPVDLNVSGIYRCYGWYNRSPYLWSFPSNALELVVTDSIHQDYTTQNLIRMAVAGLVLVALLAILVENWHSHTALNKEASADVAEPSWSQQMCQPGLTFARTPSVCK
Protocol: as §1

[6] = target: T6, chimeric human/cynomolgus monkey CD89-III on HEK293F cells (human/cynomolgus chimera, UniProt P24071 22-287); assay: FACS, 10 µg/mL, transiently transfected HEK293F
T6 construct: also called dGly72 - Gly96 human EC1-CD89; III (72-96)
T6 chain: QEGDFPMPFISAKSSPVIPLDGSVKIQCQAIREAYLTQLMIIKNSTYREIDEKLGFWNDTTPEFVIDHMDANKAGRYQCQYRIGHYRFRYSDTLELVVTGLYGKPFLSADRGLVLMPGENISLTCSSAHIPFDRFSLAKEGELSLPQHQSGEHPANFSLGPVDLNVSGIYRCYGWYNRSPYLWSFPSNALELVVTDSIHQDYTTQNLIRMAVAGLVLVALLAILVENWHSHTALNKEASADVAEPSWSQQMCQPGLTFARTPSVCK
Protocol: as §1

[7] = target: T2, membrane-bound full-length human CD89 …; assay: FACS HEK293F-huCD89, 10 ug/mL; competitor PE-MIP8a
Protocol: (§2) Then, 10 µL/tube (i.e., 0.1 × 10⁶ cells) of these cells were incubated with or without 100 µL purified mouse anti-human CD89 antibody at 10 µg/mL (in PBS/BSA/NaN₃) for 30 minutes at 4° C. […] After extensive washing in PBS/BSA/NaN₃, cells were fixed in 2% formaldehyde in PBS/BSA/NaN₃ for 30 minutes at 4° C.

[8] = target: T2, membrane-bound full-length human CD89 …; assay: FACS on HEK293F-huCD89
Protocol: Then, 10 µL/tube (i.e., 0.1 x 10⁶ cells) of these cells were incubated with 100 µL titrated (in PBS/BSA/NaN₃) purified mouse anti-human CD89 antibody/tube for 30 minutes at 4° C. […] After extensive washing in PBS/BSA/NaN₃, cells were subsequently incubated with 1:200 diluted PE-conjugated goat anti-mouse IgG Fcy-specific antibodies (Jackson ImmunoResearch) for 30 minutes at 4° C. After extensive washing in PBS/BSA/NaN₃, cells were fixed in 2% formaldehyde in PBS/BSA/NaN₃ for 30 minutes at 4° C.

[9] = target: T1, recombinant C-terminal …; assay: ELISA, coated rhuCD89
[10] = target: T2, membrane-bound full-length human CD89 …; assay: FACS, antibody before serum IgA on HEK293F-huCD89; IgA detected
[11] = target: T2, membrane-bound full-length human CD89 …; assay: FACS HEK293F-huCD89
Protocol: After extensive washing in PBS/BSA/NaN₃, cells were subsequently incubated with 1:200 diluted PE-conjugated goat anti-human IgG Fcy-specific antibodies (Jackson ImmunoResearch) for 30 minutes at 4° C. After extensive washing in PBS/BSA/NaN₃, cells were fixed in 2% formaldehyde in PBS/BSA/NaN₃ for 30 minutes at 4° C.

[12] = target: T2, membrane-bound full-length human CD89 …; assay: FACS, antibody before secretory IgA on HEK293F-huCD89; IgA detected
Protocol: Then, 10 µL/tube (i.e., 0.1 x 10⁶ cells) of these cells were incubated with or without 50 µL titrated (in PBS/BSA/NaN₃) purified mouse anti-human CD89 antibody/tube for 30 minutes at 4° C. […] After extensive washing in PBS/BSA/NaN₃, 1:200 diluted PE-conjugated streptavidin (Jackson ImmunoResearch) was added, and incubated for 30 minutes at 4° C. After extensive washing in PBS/BSA/NaN₃, cells were fixed in 4% formaldehyde in PBS/BSA/NaN₃ for 30 minutes at 4° C.

[13] = target: T7, membrane full-length cynomolgus monkey CD89 on HEK293F cells (cynomolgus monkey); assay: FACS, transiently transfected HEK293F
T7 construct: also called cynoCD89; cynomolgus EC1-CD89
T7 chain: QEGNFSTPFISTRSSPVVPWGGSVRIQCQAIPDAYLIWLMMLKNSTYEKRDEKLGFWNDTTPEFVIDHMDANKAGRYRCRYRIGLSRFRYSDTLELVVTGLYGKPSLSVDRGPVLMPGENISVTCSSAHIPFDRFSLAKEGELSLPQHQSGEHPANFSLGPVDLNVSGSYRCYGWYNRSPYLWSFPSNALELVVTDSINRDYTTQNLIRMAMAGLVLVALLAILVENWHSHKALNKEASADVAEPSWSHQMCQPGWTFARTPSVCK
Protocol: To this end, transient transfected HEK293F cells were put at 10 x 10⁶ cells/mL in ice-chilled phosphate-buffered saline containing 0.1% BSA (Sigma)/0.05% NaN₃ (PBS/BSA/NaN₃) supplemented with 50 µg/mL human IgGs (blocking FcY receptors; Sigma) for 10 minutes at 4° C. Then, 10 µL/tube (i.e., 0.1 × 10⁶ cells) of these cells were incubated with or without 100 µL purified mouse anti-human CD89 antibody at 10 µg/mL (in PBS/BSA/NaN₃) for 30 minutes at 4° C. […] After extensive washing in PBS/BSA/NaN₃, cells were subsequently incubated with 1:200 diluted PE-conjugated goat anti-mouse IgG Fcy-specific antibodies (Jackson ImmunoResearch) for 30 minutes at 4° C. After extensive washing in PBS/BSA/NaN₃, cells were fixed in 2% formaldehyde in PBS/BSA/NaN₃ for 30 minutes at 4° C.

[14] = target: T8, chimeric bovine EC1-Fcgamma2R/human EC2-CD89 on HEK293F cells (bovine/human chimera); assay: FACS, transiently transfected HEK293F
T8 chain: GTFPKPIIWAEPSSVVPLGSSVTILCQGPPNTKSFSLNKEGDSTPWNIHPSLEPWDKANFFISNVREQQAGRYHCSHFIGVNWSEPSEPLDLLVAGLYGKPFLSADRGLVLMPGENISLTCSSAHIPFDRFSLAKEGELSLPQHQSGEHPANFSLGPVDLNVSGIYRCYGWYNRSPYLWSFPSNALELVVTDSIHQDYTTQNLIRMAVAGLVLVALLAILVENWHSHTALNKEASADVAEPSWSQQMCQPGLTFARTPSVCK

[15] = target: T9, chimeric human/cynomolgus monkey CD89-II on HEK293F cells (human/cynomolgus chimera, UniProt P24071 22-287); assay: FACS, transiently transfected HEK293F
T9 construct: also called dIle47 - Ile71 human EC1-CD89; II (47-71)
T9 chain: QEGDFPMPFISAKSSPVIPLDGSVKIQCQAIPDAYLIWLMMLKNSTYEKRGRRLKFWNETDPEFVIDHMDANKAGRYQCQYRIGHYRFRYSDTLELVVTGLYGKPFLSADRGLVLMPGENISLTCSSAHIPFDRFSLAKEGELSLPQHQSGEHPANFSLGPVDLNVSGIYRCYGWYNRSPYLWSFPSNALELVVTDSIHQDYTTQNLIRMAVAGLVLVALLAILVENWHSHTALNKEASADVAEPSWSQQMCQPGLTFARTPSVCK

[16] = target: T1, recombinant C-terminal …; assay: ELISA, antibody before serum IgA on coated rhuCD89; IgA detected
Protocol: After extensive washing with PBS/0.05% Tween 20, plates were blocked with PBS/0.05% Tween 20/1% BSA (Roche) for 1 hour at RT. Subsequently, plates were incubated with 25 µL titrated (in block buffer) purified mouse anti-human CD89 antibody/well for 30 minutes at RT. […] After extensive washing in PBS/0.05% Tween 20, 1:10,000 diluted HRP-conjugated streptavidin (Jackson ImmunoResearch) was added, and incubated for 1 hour at RT, followed by a ready-to-use solution of TMB substrate (Invitrogen) for colorimetric detection.

[17] = target: membrane human CD89 on ex vivo primary human neutrophilic granulocytes or monocytic U937 cells (human, UniProt P24071 22-287); assay: cell-based or functional assay
[18] = target: T2, membrane-bound full-length human CD89 …; assay: FACS, unlabelled antibody before MIP8a-PE on HEK293F-huCD89
[19] = target: T2, membrane-bound full-length human CD89 …; assay: FACS HEK293F-huCD89, 10 ug/mL; competitor PE-A59
Protocol: as §2

[20] = target: T2, membrane-bound full-length human CD89 …; assay: FACS HEK293F-huCD89, 10 ug/mL; competitor PE-A3
Protocol: as §2

B1: humanized IgG4/kappa anti-human CD89 monoclonal antibody 10E7 version VH3VL3 (antibody)
heavy: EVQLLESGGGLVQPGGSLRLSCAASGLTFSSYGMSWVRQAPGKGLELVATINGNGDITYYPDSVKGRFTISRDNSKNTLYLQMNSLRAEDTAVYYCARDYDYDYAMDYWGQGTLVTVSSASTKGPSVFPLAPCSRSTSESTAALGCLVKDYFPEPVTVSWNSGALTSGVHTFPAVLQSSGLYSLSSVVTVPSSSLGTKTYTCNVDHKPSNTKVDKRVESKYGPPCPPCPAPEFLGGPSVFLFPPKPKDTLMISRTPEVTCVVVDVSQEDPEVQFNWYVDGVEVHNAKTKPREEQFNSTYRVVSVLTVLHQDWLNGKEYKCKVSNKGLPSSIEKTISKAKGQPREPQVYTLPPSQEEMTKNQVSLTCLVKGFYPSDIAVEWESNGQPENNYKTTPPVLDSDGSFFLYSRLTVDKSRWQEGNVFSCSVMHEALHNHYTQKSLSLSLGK
light: DIQMTQSPSSLSASVGDRVTITCRASQDIINYLNWYQQKPGKAVKLLIYYTSRLHSGVPSRFSGSGSGTDYTLTISSLQPEDFATYYCQQGKTLPYTFGQGTKLEIKRTVAAPSVFIFPPSDEQLKSGTASVVCLLNNFYPREAKVQWKVDNALQSGNSQESVTEQDSKDSTYSLSSTLTLSKADYEKHKVYACEVTHQGLSSPVTKSFNRGEC
notes: tested as supernatant; signal peptide end derived as for m17
EC50 [1]: ~0.02 µg/mL | EC50 [2]: ~1 µg/mL

B2: humanized IgG4/kappa anti-human CD89 monoclonal antibody 10E7 version VH3VL4 (antibody)
heavy: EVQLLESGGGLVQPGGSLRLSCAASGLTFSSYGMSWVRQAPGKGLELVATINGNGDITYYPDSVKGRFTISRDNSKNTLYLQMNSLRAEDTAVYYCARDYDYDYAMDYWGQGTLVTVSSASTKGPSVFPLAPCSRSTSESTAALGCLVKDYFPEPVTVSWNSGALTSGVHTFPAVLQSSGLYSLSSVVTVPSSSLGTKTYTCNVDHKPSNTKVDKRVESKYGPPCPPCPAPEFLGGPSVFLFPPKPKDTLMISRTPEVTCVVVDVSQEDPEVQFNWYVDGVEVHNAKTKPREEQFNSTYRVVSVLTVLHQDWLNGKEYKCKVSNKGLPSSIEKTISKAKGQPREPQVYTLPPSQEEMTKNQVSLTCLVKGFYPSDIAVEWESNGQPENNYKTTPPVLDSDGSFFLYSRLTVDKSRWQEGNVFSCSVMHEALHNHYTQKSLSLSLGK
light: DIQMTQSPSSLSASVGDRVTITCRASQDIINYLNWYQQKPGKTVKLLIYYTSRLHSGVPSRFSGSGSGTDYTLTISSLQPEDFATYFCQQGKTLPYTFGQGTKLEIKRTVAAPSVFIFPPSDEQLKSGTASVVCLLNNFYPREAKVQWKVDNALQSGNSQESVTEQDSKDSTYSLSSTLTLSKADYEKHKVYACEVTHQGLSSPVTKSFNRGEC
notes: as for B1
EC50 [1]: ~0.02 µg/mL | EC50 [2]: ~1 µg/mL

B3: CD89/IgA blocking mouse anti-human CD89-specific antibody 20B4 (antibody, V domains shown)
VH: QVQLKESGPGLVAPSQSLSITCTVSGFSLTSYGVHWVRQPPGKGLEWLGIIWAGGSTSYNSALMSRLSISKDNSKSQVFLKMNSLQTDDTAMYYCARDHYDLFAYWGQGTLVTVSA
VL: DILMTQSPSSMSVSLGDTVSITCHASQDISRNIGWLQQKPGKSFKGLIYHGTNLEDGVPSRFSGSGSGADYSLTISSLESEDFADYYCVQYAQFPRTFGGGTKLEIK
binding result [3]: binds | binding result [4]: binds | binding result [5]: binds | binding result [6]: binds | % blocking of PE-MIP8a binding [7]: < 25% | EC50 (read off the curve) [8]: ~0.2 µg/mL | EC50 [9]: 0.013 µg/mL | IC50 (read off the curve) [10]: ~0.3 µg/mL | EC50 [11]: 0.26 µg/mL | IC50 (read off the curve) [12]: ~0.4 µg/mL | binding result [13]: no binding (tested: 10 µg/mL) | binding result [14]: no binding (tested: 10 µg/mL) | binding result [15]: no binding (tested: 10 µg/mL)

B4: CD89/IgA blocking mouse anti-human CD89-specific antibody 30C7 (antibody, V domains shown)
VH: QVQLQQSGPELVRPGVSVKISCKGSGYTFTDYVMHWVKQSHAKSLEWIGVISTYSGNTNYNQKFKGKATMTVDKSSSTAYMELARLTSEDSAIYYCARESDGYYFDYWGQGTTLTVSS
VL: DIVMSQSPSSLAVSAGEKVTMSCKSSQSLLNSRTRKNYLAWYQQKPGQSPKLLIYWASTRESGVPDRFTGSGSGTDFTLTISSVQAEDLAVYYCKQSYNLMYTFGGGTKLEIK
binding result [3]: binds | binding result [4]: binds | binding result [5]: binds | binding result [6]: binds | % blocking of PE-MIP8a binding [7]: > 90% | EC50 (read off the curve) [8]: ~0.4 µg/mL | IC50 (read off the curve) [16]: ~0.1 µg/mL | IC50 (read off the bars), binding of granulocytes to plate-bound serum IgA [Donor 2] [17]: ~0.6 µg/mL | EC50 [9]: 0.029 µg/mL | IC50 (read off the curve) [18]: ~1 µg/mL | IC50 (read off the curve) [10]: ~0.6 µg/mL | EC50 [11]: 0.484 µg/mL | % blocking of PE-A59 binding [19]: < 25% | IC50 (read off the curve) [12]: ~1 µg/mL | binding result [14]: no binding (tested: 10 µg/mL) | binding result [15]: no binding (tested: 10 µg/mL) | % blocking of PE-A3 binding [20]: < 25%
